Measured values from patent US7005283B2, “Cytochrome P450 oxygenases and their uses” (Washington State University Research Foundation, priority 1999, dated 2006).

B1: clone F56: Taxus cuspidata cytochrome P450 oxygenase, full-length clone, SEQ ID NO: 49 (nt) / 62 (aa) (protein, listed as Taxus cuspidata)
chain: MDTLIQIQSSPDFLSFTLTAFLGVVVLLIFRYKHRSALKLPPGNLGLPFIGETITFASQPPQKFLNERGKKFGPVFKTSLIGHPTVVLCGSSGNRFLLSNEEKLVRMSLPNSYMKLLGQDSLLGKTGQEHRIVRTALGRFLGPQELQNHVAKMSSDIQHHINQKWKGNDEVKVLPLIRNLVFSIATSLFFGINDEHQQERLHLLLETIVMGAVCIPLAFPGSGFRKALQARSELDGILISLMKIRRSDLRSGAASSNQDLLSVLLTFKDERGNPLTDKEILDNFSVLLHGLYDTTISPLTLIFKLMSSNTECYENVVQEQLEILSHREKGEEIGWKDLKSMKYTWQAIQETLRMFPPVYGNFRKALTDIHYDGYTIPKGWRVLCSPFTTHSNEEYFNEPDEFRPSRFEGQGKNVPSYTFIPFGGGLRICPGWEFAKTEMLLFIHYFVKTFSSYVPVDPNEKISADPLASFPVNGFSVKLFPRS
B2: clone F9: Taxus cuspidata cytochrome P450 oxygenase, full-length clone, SEQ ID NO: 48 (nt) / 61 (aa) (protein, listed as Taxus cuspidata)
chain: MDSFNFLRGIGADFGGFIQFQSSPAVLSLSLITTILGVLLLWFFLHKNGSSVTLPPGNLGFPFIGETIPFLRALRSETPQTFFDERVKKFGVVFKTRIVGHPTVVLCGPEGNRFLLSNEDKLVQASLPNSSEKLIGKYSILSKRGEEHRILRAALARFLRPQALQGYVAKMSSEIQHHIKQKWKGNDEVKVLPLIRTLIFNIASSLFFGINDEHQQEQLHHLLEAIVLGSLSVPLDFPGTRFRKALDARSKLDEILSSLMESRRRDLRLGTASENQDLLSVLLTFKDERGNPLTDKEIFDNFSFMLHASYDTTVSPTGLMLKLLFSSPDCYEKLVQEQLGIVGNKKEGEEISWNDLKAMKYTCKVVQESMRMLPPVFGSYRKAXTYIHYDGYTIPKGWNIFWSPYTTHGKEEYFNEADKFMPSRFEEGKYVAPYTFLPFGAGLRVCPGWEFAKTEILLFVHHFITTFSSYIPIDPKDKISGDPFPPLPTNGFSMKLFTRS
modifications: not fully specified; (1)..(500) “Xaa” equals any peptide
B3: clone F42: Taxus cuspidata cytochrome P450 oxygenase, full-length clone, SEQ ID NO: 45 (nt) / 58 (aa) (protein, listed as Taxus cuspidata)
chain: MDSFSFLKSMEAKFGQVIHRDQSSSTALLSLAFTAAVAIFLVLLFRFKSRPSTNFPPGNFGFPFIGETIQFLRALRSESPHMFFDERLKKFGRVFKTSLTGHPTAVFCGPAGNRFIYSNEHKLVQSSGPNSFVKLVGQQSIVTKTGEEHRIFLGVLNEFLGPHALQSYTPKMSSKIQENINKHWKGKDEVNMLPSIRQLVFSISSSLFFDINDEDQQEQLKTLLETILVGTLSVPLDIPGSNFRKALRARSKLDEILSRLIESRRKDMRSGIASTSKNLLSVLLAFKDERGNPLTDTEILDNFSFMLHASYDTTVSPTVCIFKLLSANPECYEKVVQEQLGILGNKKDGEEMCWNDLKAMKYTWQAAQETMRLFPPAFGSFRKVIADIHHDGYIIPKGWKAMVTNYSTSRKEEYFDEPDNFKPSRFGDGKYVAPYTFLPFGAGIRICPGWEFAKLEMLLFIHHFVKNFSGYLPLDTKEKISGDPFPPLPKNGFPIKLFPRT
B4: clone F51: Taxus cuspidata cytochrome P450 oxygenase, full-length clone, SEQ ID NO: 47 (nt) / 60 (aa) (protein, listed as Taxus cuspidata)
chain: MDTIRASFGEVIQPEYSPLIISXALAAFLGIVIFSIFSSTRRSYVNLPPGNLGLPFIGETIQFLGALQSEKPHTFFDERVKKFGKVFKTSLIGDPTVVLCGPAGNRLVLSNEDKLVQSAGPKSFLKLFGEDSVAAKREESHRILRSALGRFLGPHALQNYIGKMNSEMQRHFDDKWKGKDEVKVLPLVRGLIFSIATSLFFNINDDRQREQLHGLLDTILVGSMTIPLNIPGTLFRKAVKARAKLDEILFALIENRRRELRSGLNSGNQDLLSSLLTFKDEKGNPLTDKEILDNFSVMLHASYDTTVSPTVLILKLLASNPECYEKVVQEQLGILASKKEGEEVNWKDLKAMPYTWQAIQEPLXMPXQLLECFEELSLIFSWKAIQFQKDGQLCGXLIVNGREEFFNEPDKFKPSRFEEGKPLDPYTFIPFGAGVRICAGWEFAKAELLLFVHPFVKNFSGCIIIDPNEKISGDPFPPLPTSGQLMKLIPRS
modifications: not fully specified; (1)..(492) “Xaa” equals any peptide
B5: clone F19: Taxus cuspidata cytochrome P450 oxygenase, full-length clone, SEQ ID NO: 50 (nt) / 63 (aa) (protein, listed as Taxus cuspidata)
chain: MDAFNILKGPAAKLNGVVQLGSYTDRILSITVVAFITILLLLMLRWKSQSSVKLPPGNFGFPLIGETLQLLRAFRSNTTQQFFDERQKKFGCVFKTSLVGERTVVLCGPSGNRLVLANQNKVVESSWPSAFIKLIGEDSIANTNGEKHRILRAALLRYLGPGSLQNYVGKMRSEIEHHINEKWKGKDEVKVLDLVRKNVFSVATALFFGVNDEERKRIRPPSILRKLHFAGSFSIPLDFPGTSYRRALEARLKLDKILSSLIERRRSDLRSGLASGNEDLVSVLLTFKDEGGNPLTDKEILDNFSGLLHASYDTTTSALTLTFKLMSSSAECYDKVVQEQLRIVSNKKEGEEISLKDLKDMKYTWQVVQETLRMFPPLFGSFRKTIADIQYDGYTIPKGWKVLWATYTTHGRDEYFSEPQKFRPSRFEEGGKHVAPYTFLPFEGGERTCPGYEFSKTHILLFIHQFVKTFTGYIPLDPNESISANPLPPLPANGFPVKLFQRS
B6: clone F12: Taxus cuspidata cytochrome P450 oxygenase, full-length clone, SEQ ID NO: 43 (nt) / 56 (aa) (protein, listed as Taxus cuspidata)
chain: MDTFIQHESSPLLLSLTLAVILGTILLLILSGKQYRSSRKLPPGNMGFPLIGETIALISDTPRKFIDDRVKKFGLVFKTSLIGHPAVVICGSSANRFLLSNEEKLVRMSLPNAVLKLLGQDCVMGKTGVEHGIVRTALARALGPQALQNYVAKMSSEIEHHINQKWKGKDEVKVLPLIRSLVFSISTSLFFGINDEHQQKRLHHLLETVAMGLVSIPLDFPGTRFRKALYARSKLDEIMSSVIERRRSDLRSGAASSDQDLLSVLVTFKDERGNSFADKEILDNFSFLLHALYDTTISPLTLIFKLLSSSPECYENIAQEQLEILGNKKDREEISWKDLKDMKYTWQAVQETLRMFPPVYGYIREALTDIDYDGYTIPKGWRILCSPHTTHSKEEYFDEPEEFRPSRFEDQGRHVAPYTFIPFGGGLRICAGWEFAKMEILLFMHHFVKTFSHFIPVDPNEKISRDPLPPIPVKGFSIKPFPRS

Test: not given
Format: binding, Saccharomyces cerevisiae
Settings: not given
From the text: CO-sensor of the 19 full-length cytochrome P450 clones from Taxus, thus far obtained, ten have yielded detectable CO-difference spectra (Table 2). […] These alternative expression systems for cytochrome P450 genes include the yeast Pichia pastoris, for which expression vectors and hosts are commercially available (Invitrogen, Carlsbad, Calif.), as well as established E. coli and baculovirus-insect cell systems for which general expression procedures have been described (Barnes, Methods Enzymol. 272:1–14, 1996;Gonzalez et al., Methods Enzymol. 206:93–99, 1991;Lee et al., Methods Enzymol. 272:86–98, 1996;and Lupien et al., Arch. Biochem. Biophys. 368:181–192, 1999).
Appropriate restriction sites were introduced by standard PCR methods (Innis et al., PCR Protocols: A Guide to Methods and Applications, Academic Press, San Diego, Calif., 1990) immediately upstream of the ATG start codon and downstream of the stop codon of all full-length cytochrome P450 clones. These modified amplicons were gel-purified, digested with the corresponding restriction enzymes, and then ligated into the expression vector pYeDP60. The vector/insert junctions were sequenced to ensure that no errors had been introduced by the PCR construction. Verified clones were transformed into yeast using the lithium acetate method (Ito et al., J. Bacteriol. 153:163–168, 1983). Isolated transformants were grown to stationary phase in SGI medium (Pompon et al., Methods Enzymol. 272:51–64, 1996), and used as inocula for a large-scale expression culture grown in YPL medium (Pompon et al., Methods Enzymol. 272:51–64, 1996). Approximately 24 hours after induction of cytochrome P450 expression with galactose (to 10% final concentration), a portion of the yeast cell culture was harvested by centrifugation. One-half of the culture was treated with carbon monoxide, and the cytochrome P450 CO-difference spectrum was recorded directly (using untreated cells as a control) by spectrophotometry (Omura and Sato, J. Biol. Chem. 239:2370–2378, 1964).
In the case of B1, the CO diff. spec. is reported as “−”. In the case of B2, the CO diff. spec. is reported as “+”. For B3, the CO diff. spec. was “−”. In the case of B4, the CO diff. spec. is reported as “+”. In the case of B5, the CO diff. spec. is reported as “−”. For B6, the CO diff. spec. was “+”.

Test: In vivo assay of yeast cells expressing recombinant oxygenases, radio-HPLC, substrate taxadiene
Format: cell-based, Saccharomyces cerevisiae
Settings: assayed with Taxadiene; graded symbols, key not given
From the text: (§1) Transformed yeast cells that fimctionally express a recombinant cytochrome P450 gene from Taxus (by CO-difference spectrum) can be tested in vivo for their ability to oxygenate (hydroxylate or epoxidize) taxoid substrates fed exogenously to the cells, thereby eliminating the need for microsome isolation for preliminary in vitro assays.
(§2) Accordingly, several clones of the available full-length clones were expressed in induced yeast host cells.
(§3) Isolated transformants for each full-length cytochrome P450 clone shown to express a functional enzyme by CO-difference spectrum (ten clones) were grown to stationary phase in 2 mL SGI medium at 30° C. and used to inoculate a 10-mL expression culture (in YPL medium). Approximately 8 hours after induction, cells were harvested by centrifugation (10 minutes at 1500 rpm), and the pellet was resuspended in 2 mL of fresh YPL medium.
(§4) To eliminate additional complication and uncertainty associated with microsome isolations for in vitro assays, 10^6 dpm of [20-^3H3]taxa-4(5),11(12)-diene (16 Ci/mol) or [20-^3H2]taxa-4(20),11(12)-diene-5-α-ol (4.0 Ci/mol), or other taxoid substrate were added directly to the cell suspension to assay conversion in vivo. After 12 hours of incubation at 30° C. with agitation (250 rpm), the mixture was treated for 15 minutes in a sonication bath and extracted 3 times with 2 mL diethyl ether to insure isolation of the biosynthetic products. These ether extracts, containing residual substrate and derived product(s), were concentrated to dryness, resuspended in 200 μL of CH3CN, and filtered. These samples were analyzed by radio-HPLC (Hefner et al., Chemistry and Biology 3:479–489, 1996) using a 4.6 mm i.d.×250 mm column of Econosil C18, 5 μ (Alltech, Deerfield, Ill.) with a gradient of CH3CN in H2O from 0% to 85% (10 minutes at 1 mL/minute), then to 100% CH3CN over 40 minutes.
With B1 the “product identified HPLC peak” value was “No”. In the case of B2, the “product identified HPLC peak” value is reported as “No”. With B3 the “product identified HPLC peak” value was “No”. For B4, the “product identified HPLC peak” value was “No”. In the case of B5, the “product identified HPLC peak” value is reported as “No”. In the case of B6, the “product identified HPLC peak” value is reported as “No”.

Test: In vivo assay of yeast cells expressing recombinant oxygenases, radio-HPLC, substrate taxadien-5α-ol
Format: cell-based, Saccharomyces cerevisiae
Settings: assayed with Taxadien5αol; graded symbols, key not given
From the text: as §1, §2, §3, §4
For B1, the “product identified HPLC peak” value was “No”. In the case of B3, the “product identified HPLC peak” value is reported as “No”. For B5, the “product identified HPLC peak” value was “No”.

Same assay, conditions: yeast transformants, radio-HPLC and GC-MS
With B2 the “product formed from taxadien-5α-ol” value was “more polar products”. For B4, the “product formed from taxadien-5α-ol” value was “diol products”. With B6 the “product formed from taxadien-5α-ol” value was “more polar products”.
